US8404647B2, “Peptidylarginine deiminase (PAD) inhibitors” (Chiralix B.V., priority 2008, dated 2013)
Numbered stars: 1 amine (or outer) side, 2 acyl side, 3 side chain; on linkers, the order of the positions; unused ones are H or OH. Square brackets hold non-standard residues; d marks the D form. Peptide text beside a SMILES is read from it. * marks the point of attachment. Orn(fluoroacetimidoyl) = N=C(CF)NCCC[C@H](N)C(=O)O; X1 = N=C(CCl)NCCC[C@H](N[*:1])C(=O)[*:2]; Moc = COC(=O)*

Key:
PAD2 [1] = target: T1, PAD2 (Homo sapiens, UniProt Q9Y2J8); experiment: Citrullination of synthetic peptides by recombinant human PAD2 (MALDI-TOF and ESI-Q-TOF mass spectrometry); assay type: biochemical; design: His6; made in house; details: for PAD2 conversion: Arg: share of peptide still unconverted (Arg); for PAD2 conversion: 1 Cit: share of peptide with one citrulline; for PAD2 conversion: 2 Cit: share of peptide with two citrullines
T1 sequence (Q9Y2J8 whole entry, the tested form may be a part): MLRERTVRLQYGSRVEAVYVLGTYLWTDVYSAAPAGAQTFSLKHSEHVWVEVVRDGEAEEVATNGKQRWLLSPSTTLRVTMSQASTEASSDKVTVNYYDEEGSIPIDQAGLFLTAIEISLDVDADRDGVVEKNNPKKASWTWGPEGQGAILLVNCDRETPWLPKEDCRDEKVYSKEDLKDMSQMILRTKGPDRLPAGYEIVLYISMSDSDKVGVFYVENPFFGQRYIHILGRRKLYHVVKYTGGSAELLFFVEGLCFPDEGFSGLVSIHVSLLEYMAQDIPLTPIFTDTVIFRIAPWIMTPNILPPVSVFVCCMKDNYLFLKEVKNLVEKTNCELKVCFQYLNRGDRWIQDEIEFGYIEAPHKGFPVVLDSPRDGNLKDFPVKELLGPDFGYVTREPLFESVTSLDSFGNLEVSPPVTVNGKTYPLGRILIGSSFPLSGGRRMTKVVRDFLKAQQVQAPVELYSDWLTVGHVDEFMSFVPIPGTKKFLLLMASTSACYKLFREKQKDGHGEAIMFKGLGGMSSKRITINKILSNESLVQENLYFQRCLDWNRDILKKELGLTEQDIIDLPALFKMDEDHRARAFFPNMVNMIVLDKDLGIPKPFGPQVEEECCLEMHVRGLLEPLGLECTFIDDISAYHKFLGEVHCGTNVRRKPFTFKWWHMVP
Description: (§1) Subsequently, the citrullinated proteins were isolated from the cell lysates by immunoaffinity purification using the RA3 single chain antibody fragment (scFv), which is specific for citrullinated epitopes {Raats et al., 2003}. After digestion of the purified proteins with trypsin, the amino acid sequence of the resulting peptides was determined by tandem mass spectrometry. Based upon the mass spectrometry data the peptides containing citrullinated residues were identified. In total 90 and 57 citrullinated peptides were identified in proteins derived from the COS-1 cells expressing PAD2 and PAD4, respectively, and 107 and 38 citrullinated peptides were obtained from HEK-293 cell material for PAD2 and PAD4, respectively. The frequency of amino acids at each of the positions between 5 residues N-terminal and 5 residues C-terminal from a citrullinated residue was derived from the combined sequences of these sites and is illustrated in Table 1. […] The efficiency by which these peptides were citrullinated by the human PAD2 and PAD4 enzymes was investigated by incubating them with the bacterially expressed, His6-tagged and IMAC purified, recombinant enzymes, followed by analysis of the products by both MALDI-TOF and ESI-Q-TOF mass spectrometry.

PAD4 [2] = target: T2, PAD4 (Homo sapiens, UniProt Q9UM07); experiment: Citrullination of synthetic peptides by recombinant human PAD4 (MALDI-TOF and ESI-Q-TOF mass spectrometry); assay type: biochemical; design: His6; made in house; details: for PAD4 conversion: Arg: share of peptide still unconverted (Arg); for PAD4 conversion: 1 Cit: share of peptide with one citrulline; for PAD4 conversion: 2 Cit: share of peptide with two citrullines
T2 sequence (Q9UM07 whole entry): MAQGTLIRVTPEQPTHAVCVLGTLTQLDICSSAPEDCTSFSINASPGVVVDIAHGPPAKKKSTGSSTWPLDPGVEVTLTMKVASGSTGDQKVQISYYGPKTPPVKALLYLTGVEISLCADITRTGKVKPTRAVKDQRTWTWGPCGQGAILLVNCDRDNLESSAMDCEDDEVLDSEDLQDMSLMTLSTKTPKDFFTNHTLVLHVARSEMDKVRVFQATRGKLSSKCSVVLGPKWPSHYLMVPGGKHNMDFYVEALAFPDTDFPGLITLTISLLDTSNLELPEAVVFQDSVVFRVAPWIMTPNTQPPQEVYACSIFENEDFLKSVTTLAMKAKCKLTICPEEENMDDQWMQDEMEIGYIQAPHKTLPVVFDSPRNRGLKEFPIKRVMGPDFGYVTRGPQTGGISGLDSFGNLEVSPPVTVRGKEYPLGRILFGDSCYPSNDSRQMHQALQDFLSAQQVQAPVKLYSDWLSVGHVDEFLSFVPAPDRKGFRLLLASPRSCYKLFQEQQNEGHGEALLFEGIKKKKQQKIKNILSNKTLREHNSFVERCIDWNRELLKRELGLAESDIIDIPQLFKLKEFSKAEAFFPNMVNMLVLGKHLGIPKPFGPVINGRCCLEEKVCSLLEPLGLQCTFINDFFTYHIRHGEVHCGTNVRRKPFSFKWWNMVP
Description: as §1

creatine kinase (CK) = experiment: Creatine kinase activity (CK NAC activated liquiUV test); assay type: biochemical, mammalian; details: enzyme treated with inhibitor 10 min at room temperature
Description: (§3) The activities of CK and TG (both purchased from Sigma-Aldrich (Schnelldorf, Germany) were assayed with the help of the commercial kits CK NAC activated liquiUV test form
(§4) Human GmbH (Wiesbaden, Germany) and the Enzymatic Assay of [sequence] from Sigma-Aldrich (Schnelldorf, Germany) according to the manufacturers' instructions.

His-tagged PAD4 = His-tagged PAD4 (Homo sapiens, UniProt Q9UM07); experiment: Binding of biotinylated inhibitor peptide to His-tagged PAD4 (SDS-PAGE and blot); details: 3 h at 37° C.; binding resistant to boiling in the presence of SDS
Sequence of His-tagged PAD4 (Q9UM07 whole entry): as above
Description: In the following experiments mixtures of various quantities of biotinylated inhibitor peptide (biotin-Ahx-D-S-K-K-H-D-O(FA)-D-F-L-Y-S-D-amide (SEQ ID NO: 112), O(FA)=ornithine fluoroamidine, Ahx=6-aminohexanoic acid) and a fixed amount of His-tagged PAD4 were analysed. In short, 10 μl PAD4 solution was mixed with 10 μl inhibitor solution and incubated for 3 h at 37° C. After the addition of loading buffer containing SDS, samples were either boiled for 5 minutes or kept at room temperature. Samples were loaded on a 10% polyacrylamide gel and subjected to electrophoresis (about 1 h). Proteins were transferred to a PVDF membrane and developed with either streptavidin-alkaline phosphatase conjugate (FIG. 2) or with mouse-anti-His antibody followed by goat-anti-mouse alkaline phosphatase conjugate (FIG. 3), followed by visualisation using NBT/BCIP. In Table 18 the samples are specified.
In FIG. 2 the biotin group of the inhibitor is visualised. Only lanes where the biotinylated inhibitor is present show a coloured band. The position of the bands is around the expected molecular weight of PAD4 (77 kDa). This indicates binding of the biotinylated peptide to PAD4. This binding is not broken by boiling of the sample in the presence of SDS. In FIG. 3 the His-tag of PAD4 is visualised. Only lanes where PAD4 is present show a coloured band. […]

PAD2 [3] = details: low doses, in vitro; cited from earlier work
PAD2 [4] = target: T1, PAD2; experiment: Conversion (R to Cit) of substrate peptides by PAD2, mass spectrometry; assay type: biochemical
Description: In a similar fashion as for PAD4 we identified improved peptide substrates for PAD2. Again L1 was used as a lead compound. The set of 152 peptides from Table 3 was used and testing was performed as described before.
(§2) Conversion of arginine into citrulline in the substrate peptides by PAD2 or PAD4 using mass spectrometry was performed as follows. A candidate substrate peptide was incubated with a PAD as indicated for several hours at 37° C. The reaction was quenched by the addition with acetic acid. A sample was analysed on a Qtof mass spectrometer (Micromass, UK) and the mass spectrum was compared with that of the same peptide not treated with PAD. Normally, 2^+- and 3^+-ions are detected. The conversion (ΔM=0.98 Da) was calculated on the 2^+- and 3^+-ions individually, and subsequently averaged taking into account the relative peak height of the 2^+- and 3^+-signals (see FIG. 5).

PAD4 [5] = target: T2, PAD4; experiment: Conversion (R to Cit) of substrate peptides by PAD4, mass spectrometry; assay type: biochemical
Excerpt: From previous studies it was known that D-S-Q-F-A-F-R-G-A-S-A-S-D (designated here as L1: SEQ ID NO: 11) is a substrate for PAD2 and PAD 4. To obtain better substrates, and subsequently powerful inhibitors, we intended to identify structural elements that improve substrate properties. A set of 152 individual analog peptides was generated, each differing from L1 by one amino acid at one of the positions −4 to −1 or 1 to 4.
In Table 3 the conversion of each analog (R to Cit conversion) is depicted. Values of the analogs relate to the conversion of the analog compared to the conversion of L1 under standard conditions (100 means a conversion equal to L1, 50 means conversion of 50% of that of L1, 175 means conversion of 175% of that of L1). Numbers above 100 thus relate to amino acid substitutions that improve substrate properties.
Peptides of table 4 are represented by the following sequences SEQ ID NO: 22-31 and 33-46. Control peptide are represented by the following sequences SEQ ID NO: 11 as control L1 and SEQ ID NO: 32 as control L2. Unfortunately, a substantial number of designed peptides were too polar to be analyzed on our LC-MS system (indicated in Table 4 as n.t., not trapped on the column). We therefore also generated and tested these peptides containing two additional N-terminal F-residues to increase hydrophobicity. In this form peptides were trapped on the column and could be analyzed (see Table 5).
Based on the above results we designed 20 peptides containing multiple amino acids that improve substrate properties (see Table 7). The indicated peptides were synthesized and tested in order to identify the best substrate from this group. Here we used a test system with less enzyme (3 times less) compared to the experiments described above.
as §2

caspase-3 = target: T3, caspase-3 (Homo sapiens, UniProt P42574); experiment: Caspase-3 activity assay (Ac-DEVDpNA cleavage); assay type: biochemical, mammalian; details: enzyme treated with inhibitor 10 min at room temperature
T3 sequence (P42574 29-175 limits assumed): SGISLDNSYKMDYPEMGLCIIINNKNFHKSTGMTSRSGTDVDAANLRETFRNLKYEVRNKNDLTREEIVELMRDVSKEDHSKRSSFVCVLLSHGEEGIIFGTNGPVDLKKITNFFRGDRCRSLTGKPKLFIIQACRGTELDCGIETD
T3 sequence (P42574 176-277 limits assumed): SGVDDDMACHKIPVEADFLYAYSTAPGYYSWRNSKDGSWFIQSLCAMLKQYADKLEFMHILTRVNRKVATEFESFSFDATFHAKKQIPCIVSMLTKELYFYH
Description: Upon incubation of purified recombinant caspase-3 with its commercially available substrate: acetyl-Asp-Glu-Val-Asp-p-nitroanilide (Ac-DEVDpNA) SEQ ID NO: 145 in CFS buffer (220 mM mannitol, 68 mM sucrose, 2mM NaCl, 2.5 mM KH2PO4, 10 mM HEPES, pH 7.4 plus a cocktail of protease inhibitors), the substrate is cleaved, pNA is released and its absorbance at 405 nm can be monitored.

transglutaminase (TG) = transglutaminase (TG) (UniProt P08587); experiment: biochemical
Sequence of transglutaminase (TG) (P08587 whole entry): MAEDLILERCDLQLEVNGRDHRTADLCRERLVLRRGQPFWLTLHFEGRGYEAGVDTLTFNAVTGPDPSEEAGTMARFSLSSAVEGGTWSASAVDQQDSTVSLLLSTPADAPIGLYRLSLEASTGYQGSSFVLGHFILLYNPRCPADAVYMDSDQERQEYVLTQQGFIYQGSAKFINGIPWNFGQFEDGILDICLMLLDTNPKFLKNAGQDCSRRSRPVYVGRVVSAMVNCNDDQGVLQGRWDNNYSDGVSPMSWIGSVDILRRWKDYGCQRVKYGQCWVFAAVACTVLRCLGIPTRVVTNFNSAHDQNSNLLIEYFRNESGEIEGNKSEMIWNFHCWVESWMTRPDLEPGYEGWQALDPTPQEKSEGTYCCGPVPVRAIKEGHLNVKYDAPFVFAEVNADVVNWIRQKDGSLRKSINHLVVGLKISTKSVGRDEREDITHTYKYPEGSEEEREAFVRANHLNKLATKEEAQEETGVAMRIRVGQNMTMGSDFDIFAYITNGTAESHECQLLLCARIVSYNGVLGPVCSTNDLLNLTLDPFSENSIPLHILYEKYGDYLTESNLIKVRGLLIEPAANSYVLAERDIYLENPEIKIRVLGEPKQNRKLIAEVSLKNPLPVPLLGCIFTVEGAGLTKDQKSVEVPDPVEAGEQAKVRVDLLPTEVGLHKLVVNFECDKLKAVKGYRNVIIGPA
Description: as §3, §4

papain = papain (Carica papaya, UniProt P00784); experiment: biochemical
Sequence of papain (P00784 134-345): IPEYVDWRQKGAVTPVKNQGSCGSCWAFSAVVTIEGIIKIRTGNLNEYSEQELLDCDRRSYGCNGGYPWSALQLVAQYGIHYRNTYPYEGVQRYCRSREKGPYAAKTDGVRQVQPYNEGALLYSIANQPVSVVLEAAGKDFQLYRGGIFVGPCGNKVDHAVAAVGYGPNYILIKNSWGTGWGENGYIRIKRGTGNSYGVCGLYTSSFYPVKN
Description: The activity of papain was assessed using a similar experimental setting, based on its cleavage of pGlu-Phe-Leu-pNA in reaction buffer (25 mM Tris-HCL, pH 7.6; 150 mM NaCl).

Compound | PAD2 conversion: Arg (PAD2 [1]) [%] | PAD2 conversion: 1 Cit (PAD2 [1]) [%] | PAD2 conversion: 2 Cit (PAD2 [1]) [%] | PAD4 conversion: Arg (PAD4 [2]) [%] | PAD4 conversion: 1 Cit (PAD4 [2]) [%] | PAD4 conversion: 2 Cit (PAD4 [2]) [%] | further results
COC(=O)N[C@H](C(=O)N[C@@H](CC(=O)O)C(=O)N[C@@H](CCCNC(=N)CF)C(=O)NCC(=O)N[C@@H](CO)C(=O)OC)[C@@H](C)O [CXP5-101, MeO2C-T-D-O(FA)-G-S-methylester] (Moc-TD[Orn(fluoroacetimidoyl)]GS-OMe) |  |  |  |  |  |  | IC50 (creatine kinase (CK)): 780 µM
DDYSSSRDGYGGS [SEQ ID NO: 1] | 88 | 12 |  | 97 | 3 |  | 
CC(=O)NCC(=O)N[C@@H](CC(=O)O)C(=O)N[C@@H](CCCNC(=N)CCl)C(=O)NCC(=O)N[C@@H](CO)C(=O)O [CXP5.2-078, Ac-G-D-O(CA)-G-S] (Ac-GD[X1]GS-OH; N-terminus and C-terminus assumed) |  |  |  |  |  |  | IC50 (creatine kinase (CK)): 780 µM
biotin-Ahx-D-S-K-K-H-D-O(FA)-D-F-L-Y-S-D-amide [biotinylated inhibitory peptide] |  |  |  |  |  |  | mode of binding of the inhibitor to PAD4 (His-tagged PAD4): covalent binding of the inhibitor to PAD4
CC(=O)O[C@H]1C(=O)[C@@]2(C)[C@H]([C@H](OC(=O)c3ccccc3)[C@]3(O)C[C@H](OC(=O)[C@H](O)[C@@H](NC(=O)c4ccccc4)c4ccccc4)C(C)=C1C3(C)C)[C@]1(OC(C)=O)CO[C@@H]1C[C@@H]2O [paclitaxel] |  |  |  |  |  |  | inhibition of citrullination of MBP by PAD2 (PAD2 [3]): can inhibit citrullination of MBP by PAD2 in vitro
D-S-Q-F-A-F-R-G-A-S-A-S-D (DSQFAFRGASASD) [Peptide 0308-29, reference compound] | 68 | 32 |  | 98 | 2 |  | Conversion (%) (PAD2 [4]; Table 9, PAD2): 45 (=L1) %; Conversion by PAD2 (%) (PAD2 [4]; Table 10): <20(=L1) %; conversion of L1 analogs by PAD2 (PAD2 [4]; relative to conversion of L1 (L1 = 100), single substitution at positions -4 to 4): 100%; Conversion (%) (PAD4 [5]; Table 4, 13-mer peptides, PAD4): 30% (=L1); Conversion by PAD4 (%) (PAD4 [5]; Table 10): <20(=L1) %; conversion of L1 analogs by PAD4 (PAD4 [5]; relative to conversion of L1 under standard conditions (L1 = 100), single substitution at positions -4 to 4): 100%
CC(=O)N[C@@H](CCCCN)C(=O)N[C@@H](Cc1c[nH]c2ccccc12)C(=O)N[C@@H](Cc1c[nH]cn1)C(=O)N[C@@H](CCCNC(=N)CF)C(=O)N[C@@H](CC(=O)O)C(=O)N[C@@H](Cc1ccccc1)C(=O)N[C@@H](Cc1ccccc1)C(N)=O [Peptide 0748-09FA, Ac-K-W-H-O(FA)-D-F-F-amide] (Ac-KWH[Orn(fluoroacetimidoyl)]DFF-NH2) |  |  |  |  |  |  | IC50 (caspase-3): > 1000 µM; IC50 (transglutaminase (TG)): > 1000 µM; IC50 (papain): > 2000 µM

Continued, in another order:

PAD2 conversion: Arg (PAD2 [1]) [%] | PAD2 conversion: 1 Cit (PAD2 [1]) [%] | PAD2 conversion: 2 Cit (PAD2 [1]) [%] | PAD4 conversion: Arg (PAD4 [2]) [%] | PAD4 conversion: 1 Cit (PAD4 [2]) [%] | PAD4 conversion: 2 Cit (PAD4 [2]) [%] | Compound | further results
6 | 34 | 60 | 37 | 60 | 3 | IEIMTDRGSGKKR [SEQ ID NO: 5] | 
14 | 14 | 73 | 6 | 69 | 25 | DSRFYWRGGGKSD [SEQ ID NO: 10] | 
5 | 70 | 25 | 2 | 88 | 10 | IEIITDRQSGKKR [SEQ ID NO: 7] | 
16 | 30 | 55 | 1 | 99 | 0 | DSYRSWRDGYYSD [SEQ ID NO: 4] | 
33 | 67 |  | 61 | 39 |  | GGYSGDRSGGGYG [SEQ ID NO: 2] | 
43 | 57 |  | 93 | 7 |  | DSSEELRGGGKSD [SEQ ID NO: 9] | 
15 | 85 |  | 85 | 15 |  | DSEGTWRKGPEAD [SEQ ID NO: 8] | 
1 | 96 | 4 | 2 | 69 | 29 | IGSRGDRSGFGKF [SEQ ID NO: 6] | 
54 | 46 |  | 97 | 3 |  | DGYGGSRDSYSSS [SEQ ID NO: 3] | 
